PMC2323325, “Conserved Regulation of MAP Kinase Expression by PUF RNA-Binding Proteins”

Key:
FBF-2 = target: T1, FBF-2 (Caenorhabditis elegans, UniProt Q09312 162-566); test: EMSA; Not stated; gel shift assays performed as described in ref 49; settings: protein: recombinant
T1 sequence: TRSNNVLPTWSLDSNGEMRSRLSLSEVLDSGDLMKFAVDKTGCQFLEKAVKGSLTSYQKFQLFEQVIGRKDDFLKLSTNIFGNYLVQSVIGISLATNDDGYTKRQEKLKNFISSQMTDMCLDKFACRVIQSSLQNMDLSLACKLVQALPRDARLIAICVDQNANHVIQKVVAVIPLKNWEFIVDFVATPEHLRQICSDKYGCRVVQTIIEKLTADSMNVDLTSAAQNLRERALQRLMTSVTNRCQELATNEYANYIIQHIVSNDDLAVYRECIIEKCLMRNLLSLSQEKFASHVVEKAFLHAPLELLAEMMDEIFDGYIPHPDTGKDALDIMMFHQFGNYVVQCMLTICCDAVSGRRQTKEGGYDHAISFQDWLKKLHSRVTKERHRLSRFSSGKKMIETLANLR

PUM2 = PUM2 (Homo sapiens, UniProt Q8TB72 706-1048); test: as above; settings: protein: recombinant
Sequence of PUM2 (Q8TB72 706-1048): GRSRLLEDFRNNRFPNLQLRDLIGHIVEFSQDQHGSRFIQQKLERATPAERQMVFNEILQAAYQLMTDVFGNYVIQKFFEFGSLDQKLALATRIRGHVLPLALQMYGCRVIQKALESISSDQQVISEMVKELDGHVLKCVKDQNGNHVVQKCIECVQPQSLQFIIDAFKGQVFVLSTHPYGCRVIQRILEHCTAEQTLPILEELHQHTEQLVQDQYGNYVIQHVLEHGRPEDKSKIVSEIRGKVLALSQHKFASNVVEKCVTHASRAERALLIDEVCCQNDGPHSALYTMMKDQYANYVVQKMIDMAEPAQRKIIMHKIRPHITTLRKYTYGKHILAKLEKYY

Does UAUUUUACGUAUUUACAAAUAUAUUCAU (ssRNA) [mpk-1 FBEb*] bind (FBF-2)?
Result: no binding

UAUUUUACGUAUUUUGUAAUAUAUUCAU (ssRNA) [mpk-1 FBEb] was tested. Which Kd (FBF-2) did it give?
The Kd was roughly 320 nM.

AGUUUCUUUUUCGAUGUAUCAUAAUCCA (ssRNA) [mpk-1 FBEa] was tested. Which Kd (FBF-2) did it give?
The Kd was roughly 93 nM.

Does UUCAUGAAAAUAAAUGUACAUCUUCUAU (ssRNA) [Erk2 NRE] bind (PUM2)?
Result: binds

Does AGGAGAGAAGAAAGUGUAGAUAGUUAAA (ssRNA) [p38alpha NREb] bind (PUM2)?
Result: binds

Does AGUUUCUUUUUCGAACAAUCAUAAUCCA (ssRNA) [mpk-1 FBEa*] bind (FBF-2)?
Result: no binding

Does AGUAUAUUUGAAACUGUAAAUAUGUUUG (ssRNA) [p38alpha NREa] bind (PUM2)?
Result: binds
